Measured values reported in PMC3507621, “Implication of the oligomeric state of the N-terminal PTX3 domain in cumulus matrix assembly” (Matrix Biology, 2011).
Substitutions are numbered along the chain they refer to. Names and notes keep the numbering of the source. Values joined by “and” are separate entries in the source; they are usually repeats but may differ in a detail not shown here. Identical values can stand only once.

B1: mouse TSG-6 (tumor necrosis factor-induced protein 6) (natural protein, UniProt O08859 18-275, looked up)
chain: WGFKNGIFHNSIWLEQAAGVYHREARAGRYKLTYAEAKAVCEFEGGRLATYKQLEAARKIGFHVCAAGWMAKGRVGYPIVKPGPNCGFGKTGIIDYGIRLNRSERWDAYCYNPHAKECGGVFTDPKRIFKSPGFPNEYDDNQVCYWHIRLKYGQRIHLSFLDFDLEHDPGCLADYVEIYDSYDDVHGFVGRYCGDELPEDIISTGNVMTLKFLSDASVTAGGFQIKYVTVDPASKSSQAKNTSTTGNKKFLPGRFSHL
notes: TSG-6 (tumor necrosis factor-induced protein 6), mouse; source: bought: R&D
B2: wild type recombinant N-terminal region of PTX3 (N_PTX3) (domain or fragment, human)
chain: ENSDDYDLMYVNLDNEIDNGLHPTEDPTPCACGQEHSEWDKLFIMLENSQMRERMLLQATDDVLRGELQRLREELGRLAESLARPCAPGAPAEARLTSALDELLQATRDAGRRLARMEGAEAQRPEEAGRALAAVLEELRQTRADLHAVQGWATG
notes: Pentraxin 3 (PTX3), human, residues 18-170 of the PTX3 preprotein; two non-authentic amino acids (Thr-Gly) before the C-terminal His tag; Organised into tetramers by SEC and native gel; The 5' primer begins at the ATG of the preprotein, so the signal peptide was probably encoded and cut off on secretion (surmise); also called WT; source: HEK-293 F, stably transfected, purified from culture …
B3: N_PTX3C47S/C49S/C103S (domain or fragment, human)
chain: B2 chain with C30S, C32S, C86S
notes: Pentraxin 3 (PTX3), human, residues 18-170 of the PTX3 preprotein, with C47S, C49S and C103S; two non-authentic amino acids (Thr-Gly) before the C-terminal His tag; Composed entirely of non-covalent dimers; also called triple mutant; C47/C49/C103; source: HEK-293 F, stably transfected, purified from culture supernatant (HisTrap, desalting)
B4: N_PTX3C47S/C49S (domain or fragment, human)
chain: B2 chain with C30S, C32S
notes: Pentraxin 3 (PTX3), human, residues 18-170 of the PTX3 preprotein, with C47S and C49S; two non-authentic amino acids (Thr-Gly) before the C-terminal His tag; Mixture of tetramers and dimers, more dimers than tetramers; also called double mutant; C47/C49; source: HEK-293 F, stably transfected, purified from culture supernatant (HisTrap, desalting)
B5: N_PTX3C103S (domain or fragment, human)
chain: B2 chain with C86S
notes: Pentraxin 3 (PTX3), human, residues 18-170 of the PTX3 preprotein, with C103S; two non-authentic amino acids (Thr-Gly) before the C-terminal His tag; Mixture of tetramers and dimers, more tetramers than dimers; also called single mutant; source: HEK-293 F, stably transfected, purified from culture supernatant (HisTrap, desalting)

target: T1, biotinylated recombinant full length PTX3 (human, UniProt P26022 18-381, biotin); experiment: ELISA; competition: wells coated with 500 ng of IαI or TSG-6; 50 ng/well biotinylated PTX3 with or without unlabeled N_PTX3 or triple mutant, 1 h at 37 °C; HRP-streptavidin; details: both partners purified
T1 construct: Pentraxin 3 (PTX3), human recombinant wild type, full length; As a secreted protein it probably lacks the signal peptide (residues 1-17; surmise); also called bPTX3; biotinylated PTX3

binding result | Binder
binds | B1

Target: the molecule itself
Experiment: SEC + native gel or EMSA; Superose 6 in 20 mM sodium phosphate, 150 mM NaCl, pH 7.4; native 4-20% polyacrylamide gel without SDS; oligomeric state of purified N_PTX3 proteins
Details: not given

Binder | stoichiometry N
B2 | 4
B3 | 2
B4 | 4 and 2
B5 | 4 and 2

target: B1; experiment: ELISA; N_PTX3 proteins coated on wells (10 μg/ml); IαI or TSG-6 added in PBS with Ca2+ and Mg2+, 0.05% Tween-20, 1% BSA, pH 7.4, 2 h at 37 °C; detected with polyclonal anti-IαI or anti-TSG-6; details: both partners purified

Binder | binding result
B2 | binds
B3 | binds
B4 | binds
B5 | binds
